Laboratory results as given in patent publication US7648964B2, “Use of lacritin in promoting ocular cell survival” (University of Virginia Patent Foundation, priority 2004, dated 2010).
“Also recorded” adds a separate entry of the source.

B1: N-24: deletion mutant comprising a deletion of the 24 amino terminal amino acids of lacritin (protein)
chain: DSTGADPAQEAGTSKPNEEISGPAEPASPPETTTTAQETSAAAVQGTAKVTSSRQELNPLKSIVEKSILLTEQALAKAGKGMHGGVPGGKQFIENGSEFAQKLLKKFSLLKPWA
modifications: homo sapiens
notes: deletion mutant comprising a deletion of the 24 amino terminal amino acids of lacritin
B2: lacritin: recombinant human lacritin from E. coli; mature 119 residue fragment (SEQ ID NO:10) of native lacritin SEQ ID NO:4 (protein, listed as Homo sapiens)
chain: EDASSDSTGADPAQEAGTSKPNEEISGPAEPASPPETTTTAQETSAAAVQGTAKVTSSRQELNPLKSIVEKSILLTEQALAKAGKGMHGGVPGGKQFIENGSEFAQKLLKKFSLLKPWA

How the values were obtained:
caspase-3 = assay: Caspase-3 activity in human corneal epithelial cells treated with TNF; type: cell-based; settings: FIG. 11
Procedure: FIG. 11 graphically illustrates the ability of lacritin and fragments of lacritin to inhibit the ability of tumor necrosis factor (TNF) to regulate caspase-3 activity in human corneal epithelial cells. Go6976 is an inhibitor of protein kinase C. The ordinate represents relative fluorescence units. White bars indicate 3 hours and diagonally-hatched bars indicate 6 hours.
Lacritin-induced proliferation and calcium signaling was studied in the human corneal epithelial (HCE) cell line. HCE cells were grown at 37° C. in DMEM F/12 supplemented with 10% FBS and 50 μg/ml gentamicin. Each experiment was done in a dose- and time-dependent manner using TNF-α (5-20 ng/ml) and lacritin (1-10 nM). Cell viability was measured spectrophotometrically at an absorbance of 570 nm using the MTT assay. Caspase-8 activity was detected fluorometrically by measuring cleavage of the fluorogenic substrate IETD-pNA at an excitation wavelength of 405 nm. Lacritin-induced cell proliferation was studied by H3-thymidine incorporation and via fluorescence-based detection of PKC, PLC and cAMP. Calcium signaling was detected by confocal microscopy of Fluo-4 loaded cells.

[1] = tested on: human salivary ductal (HSG) cells; assay: 3H-thymidine uptake mitogenesis assay; type: cell-based
Procedure: For phosphotyrosine blotting and mitogenesis assays, cells in serum-containing media were seeded overnight in 24-well plates at a density of 0.5×10^5 cells/mm^2 corresponding to 20-30% confluency after cell attachment, incubated in serum-free media without supplements for 24 h (phosphotyrosine) or washed with serum-free media without supplements three times (mitogenesis) and incubated with lacritin (1-1000 nM), or positive controls EGF (1.6 nM) and 10% fetal bovine serum, or negative controls bovine serum albumin or no additive in serum-free media without supplements for the indicated times (phosphotyrosine) or 30 h (mitogenesis). For phosphotyrosine assays, cells were extracted in 1% NP40 containing sodium vanadate (2 mg/ml), DTT (5 mg/ml), protease inhibitors, 50 mM HEPES, 100 mM NaCl, and 2 mM EDTA; then separated by 10% SDS PAGE, transferred and blotted. The following antibodies (Cell Signaling Technology, Beverly Mass.) were tested: antiphosphotyrosine antibody (P-Tyr-100), anti-phospho-PKC αβII, anti-PKCα, anti-phospho-PKCδ, anti-phospho-PKC (pan), anti-p44/42 MAPK, anti-phospho-Raf, anti-phospho-SAPK/JNK, anti-phospho-p38 Map kinase, anti-phospho-Raf, anti-phospho-Akt, anti-phospho-CaMKII, anti-phospho-MARCKS, or anti-tubulin (loading control). After washing, bound antibodies were detected with peroxidase-labeled secondary antibody and ECL. With the exception of at least nine proteins in the P-Tyr-100 blot (FIG. 1), none of the effectors tested above appeared to be phospho-activated during lacritin signaling (not shown). For mitogenesis (Hussaini et al., '00), [^3H]-thymidine (2 mCi/ml) was added for the next 6 h. Incorporation was stopped with ice-cold phosphate buffered saline and followed by addition of cold and then room temperature trichloracetic acid (10%) for 10 min each, washing of cells with phosphate buffered saline, solubilization with 1 N sodium hydroxide, neutralization with 1 N hydrochloric acid, addition of scintillation fluid and then quantitation in a scintillation counter. To deplete PKCα in HSG cells, a pool of four PKCα-specific siRNAs (100 nM) were transfected via LipofectAMINE 2000 in Opti-MEMI Reduced Serum Medium (Invitrogen, Grand Island N.Y.) without serum and antibiotics according to manufacturer's instructions. Each of the four siRNAs was also individually transfected. In negative controls, cells were transfected with a pool of four lamin-specific siRNAs (Upstate LLC, Charlottesville Va.; Dharmacon Inc, Lafayette Colo.). Seventy-two hours post-transfection, mitogenesis was assessed by co-addition of 10 […] lacritin and [^3H]-thymidine (2 mCi/ml) (Amersham, Piscataway N.J.) for 24 hrs. PKCα depletion was confirmed by Western blotting.

[2] = tested on: human corneal epithelial (HCE) cells; assay: 3H-thymidine uptake mitogenesis assay; type: cell-based
Procedure: (§1) For phosphotyrosine blotting and mitogenesis assays, cells in serum-containing media were seeded overnight in 24-well plates at a density of 0.5×10^5 cells/mm^2 corresponding to 20-30% confluency after cell attachment, incubated in serum-free media without supplements for 24 h (phosphotyrosine) or washed with serum-free media without supplements three times (mitogenesis) and incubated with lacritin (1-1000 nM), or positive controls EGF (1.6 nM) and 10% fetal bovine serum, or negative controls bovine serum albumin or no additive in serum-free media without supplements for the indicated times (phosphotyrosine) or 30 h (mitogenesis). […] After washing, bound antibodies were detected with peroxidase-labeled secondary antibody and ECL. […] Incorporation was stopped with ice-cold phosphate buffered saline and followed by addition of cold and then room temperature trichloracetic acid (10%) for 10 min each, washing of cells with phosphate buffered saline, solubilization with 1 N sodium hydroxide, neutralization with 1 N hydrochloric acid, addition of scintillation fluid and then quantitation in a scintillation counter. […] Seventy-two hours post-transfection, mitogenesis was assessed by co-addition of 10 […] lacritin and [^3H]-thymidine (2 mCi/ml) (Amersham, Piscataway N.J.) for 24 hrs. […]

[3] = tested on: tyrosine phosphorylation of phosphoproteins in HSG cells; assay: Phosphotyrosine blotting in HSG cells; type: cell-based, human; settings: within the first minute
Procedure: as §1

[4] = tested on: human corneal epithelial cells; assay: Calcium signaling in human corneal epithelial cells (Fluo-3AM); type: cell-based; settings: HCE cells
Procedure: Freshly isolated rat lacrimal acinar cells, and HSG (human salivary gland) ductal and HCE (human corneal epithelial) cell lines were used to study lacritin function. For secretion studies, rat acinar cells were plated serum-free overnight on wells co-coated with 0.05 μM laminin 1 (to ensure adhesion) and 0 to 20 μM lacritin, or alternatively with laminin-1 (0.05 μM) and treated the next day with serum-free medium containing 0 to 162 ng/ml of soluble lacritin for four hours. Unstimulated and stimulated (carbachol 10^−4 M/VIP 10^−8 M) secretions were then collected, assessed (peroxidase assay) and normalized to μg cellular DNA. To study tyrosine phosphorylation, overnight serum-free cultures of both rat lacrimal acinar and HSG cells were washed and treated with 10 ng/ml of soluble lacritin for 0.5, 2.5, 10, and 30 minutes. Py(20) anti-phosphotyrosine antibody immunoprecipitation of cell lysates was then examined in Western blots of 7% SDS PAGE gels using Py(20) and ECL for detection. […] Using an inverted Zeiss 510 LSM for visualization, 50 second baseline images were first recorded. While the laser was running, lacritin was added (final concentration 4 and 40 ng/ml) and the response continually monitored every 786 msec for a minimum of 200 sec.

[5] = tested on: p42 and p44 MAPK (MAPK1 and MAPK3); assay: p42/p44 MAPK activation blot in HSG cells; type: cell-based, human
Procedure: as §1

Molecule	protection from cell death by TNF (caspase-3 activity) (caspase-3)	mitogenic activity of deletion constructs ([1]; 10 nM, compared to intact lacritin)	mitogenesis [2]	tyrosine phosphorylation of at least nine phosphoproteins [3]	proliferation in nominally calcium-free medium [1]	time to detectable 3H-thymidine uptake ([1]; not shown)	level of proliferation at optimal dose ([1]; vs 10% FBS positive control)	rapidity of lacritin-dependent calcium mobilization [4]	calcium signals ([4]; serum-free)	activation of p42 and p44 MAPK [5]
Cn1c2ccccc2c2c3c(c4c5ccccc5n(CCC#N)c4c21)CNC3=O [Go 6976]	do not protect	–	–	–	–	–	–	–	–	–
B1	–	active	promote cell proliferation	–	–	–	–	–	–	–
B2	–	–	mitogenic; also recorded: promote cell proliferation	transient tyrosine phosphorylation	proliferated in a bell-shaped lacritin dose-dependent manner	Within two hours	matching the FBS positive control	20 to 30 s	rapid and sustained calcium waves	no activation
